Data reported in patent US20160051704A1, “MOLECULAR IMAGING PROBES FOR LUNG CANCER INTRAOPERATIVE GUIDANCE” (H. Lee Moffitt Cancer Center and Research Institute, Inc., priority 2013, published 2016).

How the values were obtained:
[1] = molecular target: delta opioid receptor (δOR) on HCT-116/δOR cells (UniProt P41143); experiment: LTRF competitive binding against Eu-DTPA-DPLCE (5 nM) on whole HCT-116/δOR cells; average of three experiments
[2] = molecular target: delta opioid receptor (δOR) on HCT-116/δOR cells (UniProt P41143); experiment: TRF competitive binding against Eu-labeled DPLCE on HCT116/δOR cells

Row | Substance | Ki [1] | Ki [2]
1 | Dmt-Tic-IR800 (Compound 1 of Scheme 4) (peptide) | 1.43 nM | 
2 | Dmt-Tic-Lys(Mpr)-OH (ligand 6) (peptide) |  | 2.5 nM
3 | Dmt-Tic-Lys(Cy5)-OH (Cy5 labeled ligand 1) (peptide) |  | 3 nM
